Measurements: patent US9757451B2, “Use of RANK/RANKL antagonists for treating muscular dystrophy” (UNIVERSITÉ LAVAL, priority 2011, dated 2017)
“Also recorded” adds a separate entry of the source.

Experiments:
C2C12 myotubes [1] = assay: Dexamethasone-induced myotube atrophy (myotube diameter) in vitro; type: cell-based, mouse
Protocol: FIG. 9. […] Myotubes were incubated with DEX (1,000 nM) and/or OPG at 10 ng/mL or 100 ng/mL. OPG used and tested in vivo and in vitro was bought from R&D systems (Catalog number:459-MO).
To further investigate how RANK/RANKL influences muscle function, the present inventor(s) have assessed the effect of DEX on C2C12 myoblasts grown in DMEM containing 10% FBS and 1% antibiotic-antimycotic in 96-well plates at a density of 3,000 myoblasts/well. The present inventor(s) used this mouse myoblast cell line because the present inventor(s) are very familiar with it and because it easily differentiates into myotubes and responds to RANKL stimulation. Confluent myoblasts on coverslips (approximately 300,000/well) were incubated in DMEM containing 2% horse serum for five days to allow them to differentiate into myotubes. The myotubes were then exposed to […]. This concentration was sufficient to induce a 15-20% decrease in myotube diameter relative to control myotubes after 48 h. Myotubes in other wells were treated or not with 1 mM DEX combined with 100 ng/ml of OPG. In the experiment proposed herein, myotube atrophy were determined by measuring the diameters of the myotubes at 100× magnification using a light microscope (Nikon). Three different sites in each well were blindly identified and observed throughout the experiment. The average were considered as a single value. Myotube diameters were quantified using the ImageJ digital imaging system (NIH). The diameters of 150 to 200 myotubes per well were measured after 24 and 48 h. Measurements were performed in triplicate for all the experimental conditions to enable statistical comparisons between groups.

[2] = cited from earlier work
C2C12 myotubes [3] = assay: Ca2+ concentration in myotubes measured with fluo-4; type: cell-based, mouse; details: RANKL 100 ng/ml, 10 min; myotubes 5 days in differentiation medium
Protocol: FIG. 17: RANK/RANKL interaction influences Ca^2+ homeostasis and activates different cell signaling pathways. […] Data are presented as mean+/−sem.
C2C12 myotubes fully differentiated were incubated with fluo-4 to measure Ca^2+ concentration. C2C12 Myotubes were then exposed to RANKL (100 ng/ml) for 10 min. […] (FIG. 17A). Serca activity in sham and denervated RANK^del/fl compared to sham and denervated RANK^fl/fl EDL muscles were then measured by spectrofluorimetric analysis. SERCA activity increased by more than 2-fold in EDL muscles from sham and denervated RANK^del/fl mice (FIG. 17B). […] Graph representing the difference in the expression of SERCA isoforms for each fiber type for SOL and EDL muscles compared to sham RANK^fl/fl mice. (FIG. 17E). […] Data are presented as mean+/−sem.

mdx mice = assay: Contractile and physical properties of SOL and EDL muscles of mdx mice injected with OPG; type: in vivo; details: for half relaxation time (½ RT) / maximal absolute force (Po) / maximal twitch tension (Pt) / time to peak tension (TPT) / Muscle weight: mdx, mean +/- sem
Description: (§1) Muscle contractility measurements were used to test the involvement of the RANK/RANKL pathway in muscle dysfunction. In vitro measurements of muscle contractility are the gold standard for assessing muscle function and were be performed as described previously^68,69. […] Twitch and tetanic contractions were elicited, and the following measurements recorded: maximum twitch tension (Pt), time to peak tension (TPT), one-half relaxation time (RT 1/2), and maximum tetanic tension (Po). To assess muscle fatigue, EDL and SOL muscles from RANK^fl/fl and RANK^del/fl mice were stimulated at 1 train/s at 50 Hz, and the time to the loss of 30% of their initial force recorded. […] Consistent with this observation that RANK^del/fl mice expressed a faster muscle phenotype than wild type, SOL and EDL muscles from these mice were less resistant to a fatigue protocol (FIGS. 5,6). The muscles were weighed without their tendons to quantify muscle mass and to allow the calculation of the maximum specific Po (N/cm^2).
Male mdx mice (C57BL/10ScSnJ) were purchased from Jackson Laboratories. Mdx mice were then injected i.p. with OPG (0.3 mg/kg/day) for 10 days during the 3rd and 4th week of life. Body weight were measured every 2 days and drug volume were adjusted accordingly. This concentration of OPG is selected because it is known to inhibit RANKL and bone resorption.
(§2) SOL and EDL muscles from male wild type and mdx mice were dissected and contractile properties analyzed at 4 weeks of age.

C57BL/10J mice = assay: Contractile and physical properties of SOL and EDL muscles of C57BL/10J control mice injected with OPG; type: in vivo; details: OPG 0.3 mg/kg/day i.p. 10 days, mean +/- sem
Description: as §1, §2

[4] = EDL muscle ex vivo, OPG 0.3 mg/kg/day i.p. 10 days
[5] = SOL muscle ex vivo, OPG 0.3 mg/kg/day i.p. 10 days

For `C[C@@H]1C[C@H]2[C@@H]3CCC4=CC(=O)C=C[C@]4(C)[C@@]3(F)[C@@H](O)C[C@]2(C)[C@@]1(O)C(=O)CO` [DEX, dexamethasone, reference compound], the “decrease in myotube diameter relative to control myotubes” value (C2C12 myotubes [1]; 1 mM DEX, after 48 h) was 15-20%.

In the case of “Denosumab: full human antibody that shares the pharmalogical attributes of OPG; RANKL antagonist”, the “half-life relative to OPG” value [2] is listed as “significant longer half-life”.

B1: RANKL: receptor-activator of nuclear factor κβ ligand, added at 100 ng/ml to C2C12 myotubes (protein, UniProt O35235 139-316, looked up)
Tumor necrosis factor ligand …: FSGAPAMMEGSWLDVAQRGKPEAQPFAHLTINAASIPSGSHKVTLSSWYHDRGWAKISNMTLSNGKLRVNQDGFYYLYANICFRHHETSGSVPTDYLQLMVYVVKTSIKIPSSHNLMKGGSTKNWSGNSEFHFYSINVGGFFKLRAGEEISIQVSNPSLLDPDQDATYFGAFKVQDID
With B1 the “effect on DEX-induced myotube atrophy” value (C2C12 myotubes [1]; RANKL with DEX) was “exacerbates” and the “cytosolic Ca2+ (mean fluorescence intensity of fluo-4)” value (C2C12 myotubes [3]) was “increased the release of cytosolic Ca^2+; also recorded: increased mean fluorescence intensity of fluo-4”.

B2: OPG: Osteoprotegerin, binds RANKL and inhibits the RANK/RANKL interaction; bought from R&D systems (Catalog number:459-MO) (protein, UniProt O08712 22-401, looked up)
Tumor necrosis factor …: ETLPPKYLHYDPETGHQLLCDKCAPGTYLKQHCTVRRKTLCVPCPDHSYTDSWHTSDECVYCSPVCKELQSVKQECNRTHNRVCECEEGRYLEIEFCLKHRSCPPGSGVVQAGTPERNTVCKKCPDGFFSGETSSKAPCIKHTNCSTFGLLLIQKGNATHDNVCSGNREATQKCGIDVTLCEEAFFRFAVPTKIIPNWLSVLVDSLPGTKVNAESVERIKRRHSSQEQTFQLLKLWKHQNRDQEMVKKIIQDIDLCESSVQRHLGHSNLTTEQLLALMESLPGKKISPEEIERTRKTCKSSEQLLKLLSLWRIKNGDQDTLKGLMYALKHLKTSHFPKTVTHSLRKTMRFLHSFTMYRLYQKLFLEMIGNQVQSVKISCL
For B2, the “effect on DEX-induced atrophic and phenotype change process in myotubes” value (C2C12 myotubes [1]; 1 mM DEX, >100 ng/ml of OPG, preliminary results) was “reversed the atrophic and phenotype change process”, the “effect on DEX-induced myotube atrophy” value (C2C12 myotubes [1]; DEX 1,000 nM, OPG 100 ng/ml, 24 and 48 h (FIG. 9)) was “protects against DEX-induced myotube atrophy; also recorded: totally reversed the atrophic process; also recorded: prevents myotube atrophy” and the “half relaxation time (½ RT)” value (mdx mice; [4]) was 20.67 ± 2.18 ms. The “maximal absolute force (Po)” value (mdx mice; [4]) was 10.3 ± 1.3 g, the “maximal twitch tension (Pt)” value (mdx mice; [4]) was 2.01 ± 0.2 g and the “time to peak tension (TPT)” value (mdx mice; [4]) was 29.75 ± 7.47 ms. For the same molecule, the Muscle weight (mdx mice; EDL muscle, OPG 0.3 mg/kg/day i.p. 10 days) was 4.96 ± 0.93 mg, the “half relaxation time (½ RT)” value (mdx mice; [5]) was 38 ± 3.3 ms and the “maximal absolute force (Po)” value (mdx mice; [5]) was 8.02 ± 2.99 g. The “maximal twitch tension (Pt)” value (mdx mice; [5]) was 1.2 ± 0.18 g, the “time to peak tension (TPT)” value (mdx mice; [5]) was 35.2 ± 2.43 ms and the Muscle weight (mdx mice; SOL muscle, OPG 0.3 mg/kg/day i.p. 10 days) was 4.90 ± 0.72 mg. The “increase of maximum force production (maximum specific tetanic force) of EDL muscles” value (mdx mice; male mdx mice, OPG 0.3 mg/kg daily 10 days from day 18 after birth, vs PBS) was “more than 200%”, the “specific muscle force of EDL muscles” value (mdx mice; young mdx mice (28 days), OPG 0.3 mg/kg/day i.p. 10 days, compared to PBS) was “Specific muscle force preservation is also observed” and the “half relaxation time (½ RT)” value (C57BL/10J mice; EDL muscle ex vivo) was 20.3 ± 2.4 ms. The “maximal absolute force (Po)” value (C57BL/10J mice; EDL muscle ex vivo) was 14.53 ± 3.44 g, the “maximal twitch tension (Pt)” value (C57BL/10J mice; EDL muscle ex vivo) was 2.52 ± 0.26 g and the “time to peak tension (TPT)” value (C57BL/10J mice; EDL muscle ex vivo) was 25.8 ± 2.6 ms. For the same molecule, the Muscle weight (C57BL/10J mice; EDL muscle) was 4.18 ± 0.25 mg, the “half relaxation time (½ RT)” value (C57BL/10J mice; SOL muscle ex vivo) was 46.8 ± 5.7 ms and the “maximal absolute force (Po)” value (C57BL/10J mice; SOL muscle ex vivo) was 10.79 ± 0.27 g. The “maximal twitch tension (Pt)” value (C57BL/10J mice; SOL muscle ex vivo) was 1.8 ± 0.06 g, the “time to peak tension (TPT)” value (C57BL/10J mice; SOL muscle ex vivo) was 50.75 ± 3.83 ms and the Muscle weight (C57BL/10J mice; SOL muscle) was 3.73 ± 0.20 mg.
